{"source": "patent US6964763B1", "about": "“Methods and compositions for inhibiting HIV infectivity and blocking chemokine activity” (priority 1997, dated 2005)", "molecules": {"B1": {"name": "CFP67-157: GST fusion protein containing the TSP1 binding domain of CD36 (aa 67-157) (protein)", "chain": "IFDVQNPQEVMMNSSNIQVKQRGPYTYRVRFLAKENVTQDAEDNTVSFLQPNGAIFEPSLSVGTEADNFTVLNLAVAAASHIYQNQFVQMI", "modifications": "left off: a dimerising Fc or GST"}, "B2": {"name": "LFP75-155: GST fusion protein containing the LIMPII TSP binding domain (aa 75-155) (protein)", "chain": "ILRGETPRVEEVGPYTYRELRNKANIQFGDNGTTISAVSNKAYVFERDQSVGDPKIDLIRTLNIPVLTVIEWSQVHFLREI", "modifications": "left off: a dimerising Fc or GST"}, "B3": {"name": "LIMPII peptide: LIMPII TSP-binding peptide, 10 kDa product purified after removal of GST moiety by proteolytic cleavage (protein)", "chain": "B2 chain"}, "B4": {"name": "LFP156-243: control GST fusion protein representing downstream LIMPII sequences (protein)", "chain": "IEAMLKAYQQKLFVTHTVDELLWGYKDEILSLIHVFRPDISPYFGLFYEKNGTNDGDYVFLTGEDSYLNFTKIVEWNGKTSLDWWITD", "modifications": "left off: a dimerising Fc or GST"}}, "key": {"[1]": {"system": "CD4-gp120 complex formation", "experiment": "Competitive inhibition of 125I-CD4 binding to immobilized gp120", "set-up": "species or system HIV-1 (MN and LAI isolates)", "conditions": "10-fold molar excess (0.5 μM) competitor, 50 nM 125I-CD4, MN and LAI gp120", "experimental": "FIG. 5 is a graph showing competitive inhibition of ^125I-CD4 binding to gp120. […] Samples were incubated, and bound TSP1 was measured as in FIG. 2. A single data set of triplicate samples (η=3, error as SD) is shown.\nRadiolabeling was performed with Na[^125I]\nThese observations support a role for salivary TSP1 as a direct inhibitor of HIV infectivity."}, "[2]": {"molecular_target": "recombinant HIV-1 gp160 (gp120 non-covalently linked to gp41) (Human immunodeficiency virus type 1 group M subtype B, UniProt P03375)", "conditions": "10-fold molar excess (0.5 μM) unlabeled competitor, 50 nM 125I-TSP1", "protocol": "Increasing concentrations of soluble ^125I-labeled TSP1 (1 nM-μM) were added to immobilized recombinant HIV-1 gp160 for 3 hours at 22° C., and bound TSP1 measured after extensive washing. Non-linear curve fit was generated with Excell™ version 5.0. Apparent affinity was estimated from Scatchard analysis. (n=2; error calculated as standard deviation, SD).\nA fixed concentration of ^125I-labeled TSP 1(50 nM) was added to immobilized rgp 160 in the absence or presence of 10-fold molar excess (0.5 μM) unlabeled TSP1, fusion protein LFP75-155 containing the LIMPII TSP binding domain (aa 75-155), or downstream fusion protein LFP 156-243. Samples were incubated, and bound TSP 1 was measured as in FIG. 2A. Plots represent single data sets of triplicate samples. (n=3, error as SD).\nBriefly, TSP1 (5-10 μg/ml) or fusion proteins and peptides (10-20 μg/ml) were immobilized on detachable 96-well microtiter plate strips (Immulon-4 Remov-a-well, Dynatech Laboratories, Inc.), by overnight incubation at 4° C. in carbonate buffer (100 mM Na2CO3/1 mM MgCl2/0.02% NaN3, pH 9.8). Washed wells were blocked with 0.5% bovine serum albumin (“BSA”), then incubated in triplicate with soluble radiolabeled ligand for 2.5 hours at 37° C. After extensive washing in 50 mM Tris pH 7.5, 150 mM NaCl, 0.5% Tween-20 (TBS-Tween), bound radioactivity was quantified by gamma counter. Radiolabeling was performed with Na[^125I] […] Specific activity of Na[^125I] was determined for each experiment, ranging from 0.06-1.0 μCi/μg. Specific binding was determined as quenchable in the presence of excess unlabeled ligand, above background binding to BSA-coated wells."}, "HIV-1 isolate IIIB": {"system": "HIV-1 isolate IIIB", "experiment": "HIV-1 infectivity assay, virus pre-incubated with TSP1 or saliva, p24 ELISA day 7", "format": "cell-based", "experimental": "HIV-1 isolate IIIB was pre-incubated in the absence of TSP1, or with various concentrations of purified TSP1 for 1 hour at 37° C. Pre-incubated virus-TSP1 mixtures were added to target cells either directly (−), or first passed through 0.2 μm filters (+). Phorbol myrisate acetate (“PMA”) activated primary peripheral blood mononuclear cells (“PBMC”), SK23 (T-cell line) or U937 (promonocytic line) were inoculated with the multiplicities of infection (“moi”) indicated. After an additional 1 hour at 37° C., infected cells were washed, cultured for 7 days, and HIV-1 p24 antigen measured by ELISA. Inhibition is expressed for a single data set as percent of maximum p24 detected in the absence of TSP1.\nPMA-stimulated primary PBMC were infected with 0.02 moi HIV/IIIB that had been pre-incubated with TSP1 alone, or with LIMPII fusion protein LFP75-155 alone or in the presence of TSP1, and filtered prior to incubation as in FIG. 7. TSP-mediated inhibition is expressed as percent decrease in p24 relative to maximum p24 detected in the absence of TSP 1. Data shown represent the average of two independent experiments (error as SD). […]"}}, "data": [{"molecule": "B1", "values": [{"measurement": "inhibition of 125I-CD4 binding to immobilized gp120", "setting": "[1]", "value": "~89", "unit": "%"}]}, {"molecule": "B2", "values": [{"measurement": "inhibition of 125I-TSP1 binding to gp160", "setting": "[2]", "value": "47±14", "unit": "%"}, {"measurement": "inhibition of 125I-CD4 binding to immobilized gp120", "setting": "[1]", "value": "~89", "unit": "%"}]}, {"molecule": "B3", "values": [{"measurement": "abrogation of the inhibitory effect of TSP1 by competitor", "setting": "HIV-1 isolate IIIB; 1 μM LIMPII peptide, 50-100 μg/ml TSP1, PBMC, 0.02 moi", "value": "83-90%"}, {"measurement": "decrease of HIV-1 infectivity, peptide alone", "setting": "HIV-1 isolate IIIB; LIMPII peptide alone, PBMC", "value": 9, "unit": "%"}]}, {"molecule": "B4", "values": [{"measurement": "inhibition of 125I-TSP1 binding to gp160", "setting": "[2]", "value": "did not"}, {"measurement": "inhibition of 125I-CD4 binding to immobilized gp120", "setting": "[1]", "value": "32±5", "unit": "%"}]}]}
